This assay deals with full-length mScarlet-tagged tau (2N4R) (human) (UniProt P10636). The experiment in a line: TIRF microscopy, condensate enrichment assay.

The substance “GFP-tagged isolated C-terminus of tau (domain or fragment)” showed a fold enrichment within mScarlet-2N4R condensates over the lattice of 1.2 fold.

The values above are taken from article PMC6748660.
